Five molecules from patent US20140087995A1 (published 2014) can be followed below.

B1: N^ε1-[2-[2-[2-[[(4S)-4-carboxy-4-(19-carboxynonadecanoylamino)butanoyl]amino]ethoxy]ethoxy]acetyl]-[His14,Arg17,Pro21,Pro27,His34]-h-amylin (peptide)
peptide: K([AEEA-γGlu-C20 diacid])CNTATCATQRLAHFLRHSSPNFGAIPSSTNVGHNTY-NH2
modifications: disulfide 2-7; N-terminus assumed
SMILES: CC[C@H](C)[C@H](NC(=O)[C@H](C)NC(=O)CNC(=O)[C@H](Cc1ccccc1)NC(=O)[C@H](CC(N)=O)NC(=O)[C@@H]1CCCN1C(=O)[C@H](CO)NC(=O)[C@H](CO)NC(=O)[C@H](Cc1c[nH]cn1)NC(=O)[C@H](CCCNC(=N)N)NC(=O)[C@H](CC(C)C)NC(=O)[C@H](Cc1ccccc1)NC(=O)[C@H](Cc1c[nH]cn1)NC(=O)[C@H](C)NC(=O)[C@H](CC(C)C)NC(=O)[C@H](CCCNC(=N)N)NC(=O)[C@H](CCC(N)=O)NC(=O)[C@@H](NC(=O)[C@H](C)NC(=O)[C@@H]1CSSC[C@H](NC(=O)[C@@H](N)CCCCNC(=O)COCCOCCNC(=O)CC[C@H](NC(=O)CCCCCCCCCCCCCCCCCCC(=O)O)C(=O)O)C(=O)N[C@@H](CC(N)=O)C(=O)N[C@@H]([C@@H](C)O)C(=O)N[C@@H](C)C(=O)N[C@@H]([C@@H](C)O)C(=O)N1)[C@@H](C)O)C(=O)N1CCC[C@H]1C(=O)N[C@@H](CO)C(=O)N[C@@H](CO)C(=O)N[C@H](C(=O)N[C@@H](CC(N)=O)C(=O)N[C@H](C(=O)NCC(=O)N[C@@H](Cc1c[nH]cn1)C(=O)N[C@@H](CC(N)=O)C(=O)N[C@H](C(=O)N[C@@H](Cc1ccc(O)cc1)C(N)=O)[C@@H](C)O)C(C)C)[C@@H](C)O
notes: Analogue of human amylin; also called compound 80
B2: N^ε1-[2-[2-[2-[[(4S)-4-carboxy-4-(19-carboxynonadecanoylamino)butanoyl]amino]ethoxy]ethoxy]acetyl]-[His14,Arg17,Pro21,Pro27,Pro34]-h-amylin (peptide)
peptide: K([AEEA-γGlu-C20 diacid])CNTATCATQRLAHFLRHSSPNFGAIPSSTNVGPNTY-NH2
modifications: disulfide 2-7; N-terminus assumed
SMILES: CC[C@H](C)[C@H](NC(=O)[C@H](C)NC(=O)CNC(=O)[C@H](Cc1ccccc1)NC(=O)[C@H](CC(N)=O)NC(=O)[C@@H]1CCCN1C(=O)[C@H](CO)NC(=O)[C@H](CO)NC(=O)[C@H](Cc1c[nH]cn1)NC(=O)[C@H](CCCNC(=N)N)NC(=O)[C@H](CC(C)C)NC(=O)[C@H](Cc1ccccc1)NC(=O)[C@H](Cc1c[nH]cn1)NC(=O)[C@H](C)NC(=O)[C@H](CC(C)C)NC(=O)[C@H](CCCNC(=N)N)NC(=O)[C@H](CCC(N)=O)NC(=O)[C@@H](NC(=O)[C@H](C)NC(=O)[C@@H]1CSSC[C@H](NC(=O)[C@@H](N)CCCCNC(=O)COCCOCCNC(=O)CC[C@H](NC(=O)CCCCCCCCCCCCCCCCCCC(=O)O)C(=O)O)C(=O)N[C@@H](CC(N)=O)C(=O)N[C@@H]([C@@H](C)O)C(=O)N[C@@H](C)C(=O)N[C@@H]([C@@H](C)O)C(=O)N1)[C@@H](C)O)C(=O)N1CCC[C@H]1C(=O)N[C@@H](CO)C(=O)N[C@@H](CO)C(=O)N[C@H](C(=O)N[C@@H](CC(N)=O)C(=O)N[C@H](C(=O)NCC(=O)N1CCC[C@H]1C(=O)N[C@@H](CC(N)=O)C(=O)N[C@H](C(=O)N[C@@H](Cc1ccc(O)cc1)C(N)=O)[C@@H](C)O)C(C)C)[C@@H](C)O
notes: Analogue of human amylin; also called compound 68
B3: N^ε1-[2-[2-[2-[[(4S)-4-carboxy-4-(19-carboxynonadecanoylamino)butanoyl]amino]ethoxy]ethoxy]acetyl]-[Ser14,Arg17,Pro21,Pro27,Pro31]-h-amylin (peptide)
peptide: K([AEEA-γGlu-C20 diacid])CNTATCATQRLASFLRHSSPNFGAIPSSTPVGSNTY-NH2
modifications: disulfide 2-7; N-terminus assumed
SMILES: CC[C@H](C)[C@H](NC(=O)[C@H](C)NC(=O)CNC(=O)[C@H](Cc1ccccc1)NC(=O)[C@H](CC(N)=O)NC(=O)[C@@H]1CCCN1C(=O)[C@H](CO)NC(=O)[C@H](CO)NC(=O)[C@H](Cc1c[nH]cn1)NC(=O)[C@H](CCCNC(=N)N)NC(=O)[C@H](CC(C)C)NC(=O)[C@H](Cc1ccccc1)NC(=O)[C@H](CO)NC(=O)[C@H](C)NC(=O)[C@H](CC(C)C)NC(=O)[C@H](CCCNC(=N)N)NC(=O)[C@H](CCC(N)=O)NC(=O)[C@@H](NC(=O)[C@H](C)NC(=O)[C@@H]1CSSC[C@H](NC(=O)[C@@H](N)CCCCNC(=O)COCCOCCNC(=O)CC[C@H](NC(=O)CCCCCCCCCCCCCCCCCCC(=O)O)C(=O)O)C(=O)N[C@@H](CC(N)=O)C(=O)N[C@@H]([C@@H](C)O)C(=O)N[C@@H](C)C(=O)N[C@@H]([C@@H](C)O)C(=O)N1)[C@@H](C)O)C(=O)N1CCC[C@H]1C(=O)N[C@@H](CO)C(=O)N[C@@H](CO)C(=O)N[C@H](C(=O)N1CCC[C@H]1C(=O)N[C@H](C(=O)NCC(=O)N[C@@H](CO)C(=O)N[C@@H](CC(N)=O)C(=O)N[C@H](C(=O)N[C@@H](Cc1ccc(O)cc1)C(N)=O)[C@@H](C)O)C(C)C)[C@@H](C)O
notes: Analogue of human amylin; also called compound 73
B4: N^ε1-[2-[2-[2-[[(4S)-4-carboxy-4-(19-carboxynonadecanoylamino)butanoyl]amino]ethoxy]ethoxy]acetyl]-[Lys14,Arg17,Pro21,Pro27,Pro31]-h-amylin (peptide)
peptide: K([AEEA-γGlu-C20 diacid])CNTATCATQRLAKFLRHSSPNFGAIPSSTPVGSNTY-NH2
modifications: disulfide 2-7; N-terminus assumed
SMILES: CC[C@H](C)[C@H](NC(=O)[C@H](C)NC(=O)CNC(=O)[C@H](Cc1ccccc1)NC(=O)[C@H](CC(N)=O)NC(=O)[C@@H]1CCCN1C(=O)[C@H](CO)NC(=O)[C@H](CO)NC(=O)[C@H](Cc1c[nH]cn1)NC(=O)[C@H](CCCNC(=N)N)NC(=O)[C@H](CC(C)C)NC(=O)[C@H](Cc1ccccc1)NC(=O)[C@H](CCCCN)NC(=O)[C@H](C)NC(=O)[C@H](CC(C)C)NC(=O)[C@H](CCCNC(=N)N)NC(=O)[C@H](CCC(N)=O)NC(=O)[C@@H](NC(=O)[C@H](C)NC(=O)[C@@H]1CSSC[C@H](NC(=O)[C@@H](N)CCCCNC(=O)COCCOCCNC(=O)CC[C@H](NC(=O)CCCCCCCCCCCCCCCCCCC(=O)O)C(=O)O)C(=O)N[C@@H](CC(N)=O)C(=O)N[C@@H]([C@@H](C)O)C(=O)N[C@@H](C)C(=O)N[C@@H]([C@@H](C)O)C(=O)N1)[C@@H](C)O)C(=O)N1CCC[C@H]1C(=O)N[C@@H](CO)C(=O)N[C@@H](CO)C(=O)N[C@H](C(=O)N1CCC[C@H]1C(=O)N[C@H](C(=O)NCC(=O)N[C@@H](CO)C(=O)N[C@@H](CC(N)=O)C(=O)N[C@H](C(=O)N[C@@H](Cc1ccc(O)cc1)C(N)=O)[C@@H](C)O)C(C)C)[C@@H](C)O
notes: Analogue of human amylin; also called compound 74
B5: N^ε1-[2-[2-[2-[[(4S)-4-carboxy-4-(19-carboxynonadecanoylamino)butanoyl]amino]ethoxy]ethoxy]acetyl]-[His14,Arg17,Pro21,Pro27,Pro31]-h-amylin (peptide)
peptide: K([AEEA-γGlu-C20 diacid])CNTATCATQRLAHFLRHSSPNFGAIPSSTPVGSNTY-NH2
modifications: disulfide 2-7; N-terminus assumed
SMILES: CC[C@H](C)[C@H](NC(=O)[C@H](C)NC(=O)CNC(=O)[C@H](Cc1ccccc1)NC(=O)[C@H](CC(N)=O)NC(=O)[C@@H]1CCCN1C(=O)[C@H](CO)NC(=O)[C@H](CO)NC(=O)[C@H](Cc1c[nH]cn1)NC(=O)[C@H](CCCNC(=N)N)NC(=O)[C@H](CC(C)C)NC(=O)[C@H](Cc1ccccc1)NC(=O)[C@H](Cc1c[nH]cn1)NC(=O)[C@H](C)NC(=O)[C@H](CC(C)C)NC(=O)[C@H](CCCNC(=N)N)NC(=O)[C@H](CCC(N)=O)NC(=O)[C@@H](NC(=O)[C@H](C)NC(=O)[C@@H]1CSSC[C@H](NC(=O)[C@@H](N)CCCCNC(=O)COCCOCCNC(=O)CC[C@H](NC(=O)CCCCCCCCCCCCCCCCCCC(=O)O)C(=O)O)C(=O)N[C@@H](CC(N)=O)C(=O)N[C@@H]([C@@H](C)O)C(=O)N[C@@H](C)C(=O)N[C@@H]([C@@H](C)O)C(=O)N1)[C@@H](C)O)C(=O)N1CCC[C@H]1C(=O)N[C@@H](CO)C(=O)N[C@@H](CO)C(=O)N[C@H](C(=O)N1CCC[C@H]1C(=O)N[C@H](C(=O)NCC(=O)N[C@@H](CO)C(=O)N[C@@H](CC(N)=O)C(=O)N[C@H](C(=O)N[C@@H](Cc1ccc(O)cc1)C(N)=O)[C@@H](C)O)C(C)C)[C@@H](C)O
notes: Analogue of human amylin; also called compound 61

Numbered stars: 1 amine (or outer) side, 2 acyl side, 3 side chain; on linkers, the order of the positions; unused ones are H or OH. Bridge positions count the residues as written; N and C are the ends. Side chains are listed from the residue outwards. Ends that are not written are not given here. * marks the point of attachment. C20 diacid = O=C(O)CCCCCCCCCCCCCCCCCCC(=O)*; γGlu = O=C(O)[C@H](CCC(=O)[*:2])N[*:1]; AEEA = NCCOCCOCC(=O)O

One assay has as its target T1, rat calcitonin receptor (rat, UniProt P32214 25-516).
T1 construct: whole, on cells; Membranes prepared from transiently transfected BHK tk'ts 13 cells (Assay VIII); also called rCTR; rCT
T1 sequence (looked up): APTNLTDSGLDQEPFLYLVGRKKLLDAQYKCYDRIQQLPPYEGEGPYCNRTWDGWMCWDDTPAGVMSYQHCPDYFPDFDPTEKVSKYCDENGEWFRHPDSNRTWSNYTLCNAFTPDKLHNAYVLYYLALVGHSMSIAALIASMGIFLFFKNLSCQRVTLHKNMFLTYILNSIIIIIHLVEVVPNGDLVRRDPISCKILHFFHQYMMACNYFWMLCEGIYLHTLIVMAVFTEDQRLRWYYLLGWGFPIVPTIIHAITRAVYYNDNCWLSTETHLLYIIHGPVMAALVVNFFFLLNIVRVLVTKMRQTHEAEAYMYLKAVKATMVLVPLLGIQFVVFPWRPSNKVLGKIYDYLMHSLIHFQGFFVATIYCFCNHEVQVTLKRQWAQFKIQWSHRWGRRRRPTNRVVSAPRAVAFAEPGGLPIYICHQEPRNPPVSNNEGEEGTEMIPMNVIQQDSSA
The assay can be described thus: ratio of binding IC50s: rat calcitonin receptor / rat amylin receptor (reference).
Regarding B1, the “Ratio rCT/rAmylin binding” value was determined as 36.2.
Consider B2, for which the “Ratio rCT/rAmylin binding” value worked out at 122.
Turning to B3, the “Ratio rCT/rAmylin binding” value stood at 178.
As to B4, the “Ratio rCT/rAmylin binding” value worked out at 22.3.
Same read-out and setting: to B5 belongs 39.7.

The target of a further assay is T2, human calcitonin receptor (human, UniProt P30988 25-474).
T2 construct: whole, on cells; Membranes prepared from a stably transfected BHK cell line (Assay VII); also called hCTR; hCT
T2 sequence (looked up): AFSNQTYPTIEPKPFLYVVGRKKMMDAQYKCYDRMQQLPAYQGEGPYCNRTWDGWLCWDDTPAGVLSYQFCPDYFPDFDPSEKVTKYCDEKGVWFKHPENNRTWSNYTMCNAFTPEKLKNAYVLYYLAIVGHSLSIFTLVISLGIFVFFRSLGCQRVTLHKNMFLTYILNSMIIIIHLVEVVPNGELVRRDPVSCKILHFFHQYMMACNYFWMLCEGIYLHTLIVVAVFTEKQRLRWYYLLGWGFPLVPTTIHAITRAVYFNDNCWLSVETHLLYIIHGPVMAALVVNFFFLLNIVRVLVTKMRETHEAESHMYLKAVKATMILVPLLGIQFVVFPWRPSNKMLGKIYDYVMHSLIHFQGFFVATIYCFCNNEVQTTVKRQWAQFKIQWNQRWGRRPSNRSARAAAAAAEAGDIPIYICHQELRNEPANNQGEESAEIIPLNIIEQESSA
The assay can be described thus: ratio of binding IC50s: human calcitonin receptor / human amylin receptor (reference). The method, boiled down:
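Scintillation proximity competition binding on cell membranes at 35 ng/μL with SPA beads, in 50 mM Hepes pH 7.4, 1 mM CaCl2, 5 mM MgCl₂, 0.1% OA, 0.02% Tween20. Incubated 120 min at 25° C with shaking. IC₅₀ from one-site competition fit.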
For the molecule B1, the “Ratio hCT/hAmylin binding” value was found to be 68.1.
On to B2, for which the “Ratio hCT/hAmylin binding” value turned out to be 64.4.
For the molecule B3, the “Ratio hCT/hAmylin binding” value worked out at 51.7.
On to B4, for which the “Ratio hCT/hAmylin binding” value worked out at 101.
On the same count and under the same terms, the value for B5 was 66.7.

For a further assay, the target named is T1, rat calcitonin receptor. The assay can be described thus: SPA competition vs 125I-calcitonin, membranes of BHK cells with rat calcitonin receptor (Assay VIII).
In general, IC50 refers to the concentration needed to halve the response being measured. B1: the IC50 was 60.4 nM.
On the same count and under the same terms, the value for B2 was 28.5 nM.
As for B3, the IC50 turned out to be 50.3 nM.
The same measure, in the same setting: to B4 belongs 109 nM.
Take B5: the half-inhibitory concentration (IC50) was 33.4 nM.

Another assay has as its target T3, rat amylin receptor (rat calcitonin receptor + rat RAMP 3) (rat, UniProt P32214 25-516; Q9JJ73 23-147).
T3 construct: whole, on cells; Membranes prepared from transiently transfected BHK tk'ts 13 cells (Assay VI); also called rAmylin-R; rAmylin
T3 sequence (looked up) 1: T1 sequence (looked up)
T3 sequence (looked up) 2: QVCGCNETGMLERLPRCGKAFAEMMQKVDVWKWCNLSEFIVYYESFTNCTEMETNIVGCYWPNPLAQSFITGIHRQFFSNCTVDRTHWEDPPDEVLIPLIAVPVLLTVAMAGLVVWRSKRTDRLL
The assay can be described thus: SPA competition vs 125I-rat amylin, membranes of BHK cells with rat calcitonin receptor + rat RAMP3 (Assay VI).
For B1, the IC50 was found to be 1.67 nM.
In the case of B2, the IC50 came to 0.234 nM.
Same read-out and setting: to B3 belongs 0.283 nM; to B4, 4.89 nM; to B5, 0.842 nM.
